The results in this text go back to patent publication US20170137467A1 (CHROMOTEK, published 2017).

Substitutions are numbered along the chain they refer to. Square brackets hold non-standard residues; d marks the D form. GABA = NCCCC(=O)O

Common to all, as to assay: positional peptide library pulldown on immobilised Nb, LC-MS of supernatant; signal ratio to control GFP-Nb (1 = not captured, near 0 = captured)
One experiment addresses T1, BC2T H9K.
T1 construct: positional scanning library member
T1 peptide: Ac-PDRKAAVSKWQQ-NH2
The source says:
(§1) In total, 12 different BC2T libraries displaying all 20 proteinogenic amino acids in one single position of the peptide were used in immunoprecipitation experiments. […] The direct comparison with the GFP-Nb made it possible to determine the quantitative degree of peptide capture without the need of labeled standards. […] The more peptide was captured the more the value approximates 0. It was not possible to discriminate between isoleucine (I) and leucine (L) peptide versions since these peptides are isobaric.
(§2) To investigate the binding specificity of the BC2T and derived mutants peptide libraries for each amino acid position of the sequence […] (SEQ ID NO:4) were synthesized with acetyl and amide groups located at the N-termini or C-termini respectively (Intavis). […] Incubations were performed in 300 μl PBS/0.01% CHAPS for 1 h on a HulaMixer (Life Technologies). Subsequent to a centrifugation step 10 μl supernatant were analyzed in a LC-MS procedure. Peptides were separated using an UltiMate3000 RSLCnano System (Thermo Scientific), composed of a C18 PepMap100μ-Precolumn (300 μm×5 mm; particle size: 5 μm; pore size: 100 Å—Thermo Scientific) and a C18 analytical column (Acclaim Rapid Separation LC (RSLC) Column: 150 mm×5 mm; particle size: 2.2 μm; pore size: 100 Å—Thermo Scientific). A step gradient was applied starting at 8% and ending after 20 min at 30% eluent B (80% acetonitrile, 20% H₂O, 0.1% formic acid).

Another experiment concerns the target T2, BC2T H9F.
T2 construct: positional scanning library member
T2 peptide: Ac-PDRKAAVSFWQQ-NH2
Source text: as §1, §2

For a further experiment, the target named is T3, BC2T S8V.
T3 construct: positional scanning library member
T3 peptide: Ac-PDRKAAVVHWQQ-NH2
Source text: as §1, §2

The next experiment deals with T4, BC2T Q11S.
T4 construct: positional scanning library member
T4 peptide: Ac-PDRKAAVSHWSQ-NH2
Source text: as §1, §2

The target in the next experiment is T5, BC2T W10C(Abu) (SMILES …).
T5 construct: positional scanning library member
T5 peptide: Ac-PDRKAAVSH[GABA]QQ-NH2
Source text: as §1, §2

Another experiment deals with T6, BC2T S8N.
T6 construct: positional scanning library member
T6 peptide: Ac-PDRKAAVNHWQQ-NH2
Source text: as §1, §2

Another experiment has as its target T7, BC2T W10A.
T7 construct: positional scanning library member
T7 peptide: Ac-PDRKAAVSHAQQ-NH2
Source text: as §1, §2

The target of the next experiment is T8, BC2T Q12G.
T8 construct: positional scanning library member
T8 peptide: Ac-PDRKAAVSHWQG-NH2
Source text: as §1, §2

In a further experiment the target is T9, BC2T Q11T.
T9 construct: positional scanning library member
T9 peptide: Ac-PDRKAAVSHWTQ-NH2
Source text: as §1, §2

The next experiment concerns the target T10, BC2T S8R.
T10 construct: positional scanning library member
T10 peptide: Ac-PDRKAAVRHWQQ-NH2
Source text: as §1, §2

The next experiment has as its target T11, BC2T W10(I/L1) (N-terminal acetyl; C-terminal amide).
T11 construct: positional scanning library member; I or L not resolved
Source text: as §1, §2

The target of a further experiment is T12, BC2T Q12K.
T12 construct: positional scanning library member
T12 peptide: Ac-PDRKAAVSHWQK-NH2
Source text: as §1, §2

Another experiment addresses T13, BC2T Q11F.
T13 construct: positional scanning library member
T13 peptide: Ac-PDRKAAVSHWFQ-NH2
Source text: as §1, §2

The target of a further experiment is T14, BC2T H9C(Abu) (SMILES …).
T14 construct: positional scanning library member
T14 peptide: Ac-PDRKAAVS[GABA]WQQ-NH2
Source text: as §1, §2

The next experiment addresses T15, BC2T W10R.
T15 construct: positional scanning library member
T15 peptide: Ac-PDRKAAVSHRQQ-NH2
Source text: as §1, §2

A further experiment has as its target T16, BC2T Q12H.
T16 construct: positional scanning library member
T16 peptide: Ac-PDRKAAVSHWQH-NH2
Source text: as §1, §2

The target of another experiment is T17, BC2T Q12A.
T17 construct: positional scanning library member
T17 peptide: Ac-PDRKAAVSHWQA-NH2
Source text: as §1, §2

The next experiment has as its target T18, BC2T W10Y.
T18 construct: positional scanning library member
T18 peptide: Ac-PDRKAAVSHYQQ-NH2
Source text: as §1, §2

Another experiment addresses T19, BC2T Q12S.
T19 construct: positional scanning library member
T19 peptide: Ac-PDRKAAVSHWQS-NH2
Source text: as §1, §2

For the next experiment, the target named is T20, BC2T S8P.
T20 construct: positional scanning library member
T20 peptide: Ac-PDRKAAVPHWQQ-NH2
Source text: as §1, §2

A further experiment has as its target T21, BC2T H9P.
T21 construct: positional scanning library member
T21 peptide: Ac-PDRKAAVSPWQQ-NH2
Source text: as §1, §2

B1: BC2 nanobody (VHH)
VHH: QVQLVESGGGLVQPGGSLTLSCTASGFTLDHYDIGWFRQAPGKEREGVSCINNSDDDTYYADSVKGRFTIFMDNAKDTVYLQMNSLKPEDTAIYYCAEARGCKRGRYEYDFWGQGTQVTVSS
notes: immobilised on beads in this assay; also called BC2-Nb; BC2 nanotrap (immobilised)
As for B1, the ratio amounted to 0.2 in the experiment with BC2T H9K; 0.1 with BC2T H9F; 0.1 in the experiment with BC2T S8V; 0.1 with BC2T Q11S; 1 in the experiment with BC2T W10C(Abu); 0.2 with BC2T S8N. The ratio is 1 with BC2T W10A; 0.2 with BC2T Q12G; 0.1 with BC2T Q11T; 0.5 with BC2T S8R; 1 in the experiment with BC2T W10(I/L1); 0 with BC2T Q12K. The ratio with BC2T Q11F was 0; with BC2T H9C(Abu), 0.2; with BC2T W10R, 1; with BC2T Q12H, 0.1; with BC2T Q12A, 0.1; with BC2T W10Y it was 1. The results for the ratio with BC2T Q12S, with BC2T S8P and with BC2T H9P were 0.1, 0.7 and 0.8, respectively.

B2: BC2-NbR106S (VHH)
VHH: B1 VHH with R106S
notes: headlock mutant of BC2-Nb; immobilised on beads in this assay
Turning to B2, the ratio in the experiment with BC2T H9K was 0.3; in the experiment with BC2T H9F, 0.3; with BC2T S8V it was 0.3; in the experiment with BC2T Q11S, 0.2; with BC2T W10C(Abu), 1; with BC2T S8N it was 0.7. Also, the ratio in the experiment with BC2T W10A was 1; in the experiment with BC2T Q12G, 0.4; in the experiment with BC2T Q11T, 0.2; in the experiment with BC2T S8R, 0.9; with BC2T W10(I/L1), 1.1; in the experiment with BC2T Q12K, 0.1. The ratio with BC2T Q11F came out at 0.2; with BC2T H9C(Abu), 0.5; in the experiment with BC2T W10R, 1.1; with BC2T Q12H, 0.3; in the experiment with BC2T Q12A, 0.3; with BC2T W10Y, 1. Further, the ratio with BC2T Q12S is 0.2; with BC2T S8P it was 1; with BC2T H9P, 1.
